According to US7932227 (UNIVERSITY OF VIRGINIA PATENT FOUNDATION, dated 2011):
Each block holds one binder with its values, some of them ahead of it.

Key:
human syndecan-1 (SDC1) [1] = target: T1, human syndecan-1 (SDC1) (human, UniProt P18827 23-310, heparan sulfate and chondroitin sulfate chains; the lacritin-bindable form is partly or wholly deglycanated (heparanase or heparitinase)); experiment: lacritin-intein-chitin column, detergent lysate of surface biotinylated HSG cells, 1 M NaCl elution, streptavidin blot, mass spectrometry
T1 construct: Seen as 190 kDa multimer and 80 kDa band on blots; also called cell surface SDC1; native SDC1
T1 sequence: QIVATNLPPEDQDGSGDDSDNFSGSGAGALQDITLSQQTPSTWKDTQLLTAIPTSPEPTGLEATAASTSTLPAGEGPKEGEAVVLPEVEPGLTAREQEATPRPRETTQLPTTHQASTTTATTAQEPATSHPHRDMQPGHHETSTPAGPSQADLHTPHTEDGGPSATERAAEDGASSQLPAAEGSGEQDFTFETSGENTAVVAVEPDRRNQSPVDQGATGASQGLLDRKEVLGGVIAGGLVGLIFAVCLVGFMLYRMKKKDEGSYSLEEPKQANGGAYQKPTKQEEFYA
Procedure: Cell surface biotinylation, and affinity chromatography followed the method of Chen et al (1997). Briefly, six 150 mm culture dishes of 80% confluent HSG cells were washed twice on ice with ice-cold PBS and incubated for 30 min with EZ-Link Sulfo-NHS-LC Biotin (Pierce, Rockford Ill.). Cells were then washed twice with PBS-glycine, gently loosened with a cell scraper, and pelleted at 4° C. The pellet was twice resuspended in 25 ml PBS-glycine, and incubated for 30 min in 1 ml lysis buffer (50 mM Tris HCl, pH 7.4, 100 mM NaCl, 5 mM MnCl2, 2 mM PMSF, 200 mM n-octyl-β-D-glucopyranoside, and protease inhibitors (Roche Diagnostics, Penzberg Germany)). Lysate was centrifuged for 15 min at 4° C., and the supernatant applied to a 1 ml pre-column then washed through with 1 ml of binding buffer (50 mM Tris HCl, pH 7.4, 100 mM NaCl, 5 mM MnCl2, 2 mM PMSF, 50 mM n-octyl-β-D-glucopyranoside) and collected. […] For the latter, blots were blocked with PBS containing 0.1% Tween-20 and 2.5% milk for 1 h at 37° C., washed three times with PBS/0.1% Tween-20, incubated in 50 ml of 1:1000 streptavidin-horseradish peroxidase conjugate (Amersham Biosciences, Piscataway N.J.) in PBS/0.1% Tween-20, washed five times with the same buffer and then detected using ECL reagent (Pierce, Rockford Ill.). […]

human syndecan-2 (SDC2) = target: T2, human syndecan-2 (SDC2) (human, UniProt P34741 19-201, heparan sulfate chains); experiment: SDC2 purified on FGF2-GST, salt eluted, heparitinase digested, incubated with lacritin-intein beads
T2 construct: also called native SDC2
T2 sequence (P34741 19-201 limits assumed): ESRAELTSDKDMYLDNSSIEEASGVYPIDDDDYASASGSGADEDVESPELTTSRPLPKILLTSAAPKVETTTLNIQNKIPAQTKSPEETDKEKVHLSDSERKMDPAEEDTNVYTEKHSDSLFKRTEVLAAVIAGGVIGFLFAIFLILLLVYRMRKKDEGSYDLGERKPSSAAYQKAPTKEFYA
Procedure: (§1) Lysates were cleared by centrifugation (20,000×g) at 4° C., and protein concentration of supernatant was estimated by the BCA assay (Pierce, Rockford Ill.). Lacritin-intein or lacritin-GST (5 µg) and FGF2-GST fusion proteins were respectively bound to chitin beads (New England Biolabs, Ipswich Mass.) or glutathione-Sepharose beads (Amersham Biosciences, Piscataway N.J.). Beads were incubated with lysates (~200 µg of SDC1 stably expressing HEK293T cells) overnight at 4° C., and washed three times with binding buffer as above (each wash three times the bead volume). In competition assays, SDC1 lysates were mixed with increasing amounts of soluble lacritin, HS, HS plus CS (Seikagaku America, Falmouth Mass.), bacterially expressed human SDC1 ectodomain (hS1ED), native SDC2, native SDC4, N-24 or C-25. Mixtures were then applied to lacritin immobilized beads, and further studied as described below. For sequential pull down assays, cell lysates were sequentially affinity precipitated with FGF2-GST or lacritin-intein. After FGF2-GST depletion of all available FGF-bindable SDC1, one-half was precipitated with lacritin-intein. The other half was methanol precipitated overnight and resuspended in heparitinase buffer. […]

human syndecan-4 (SDC4) = target: T3, human syndecan-4 (SDC4) (human, UniProt P31431 19-198, heparan sulfate chains); experiment: SDC4 purified on FGF2-GST, salt eluted, heparitinase digested, incubated with lacritin-intein beads
T3 construct: also called native SDC4
T3 sequence (looked up): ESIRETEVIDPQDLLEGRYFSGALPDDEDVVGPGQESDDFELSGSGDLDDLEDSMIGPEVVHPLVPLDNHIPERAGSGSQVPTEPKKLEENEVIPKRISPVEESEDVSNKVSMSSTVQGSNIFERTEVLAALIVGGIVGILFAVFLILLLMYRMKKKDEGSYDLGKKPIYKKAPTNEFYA
Procedure: as §1

human syndecan-1 (SDC1) [2] = target: T1, human syndecan-1 (SDC1); experiment: soluble competitor of lacritin-intein beads for SDC1 in HEK293T lysate, B-B4 blot
Procedure: (§2) All lacritin truncations were expressed as intein fusion proteins for affinity precipitation. Asterisk indicates mitogenic domain (Wang et al, submitted), and boxes represent PSIPRED-predicted alpha helices. (B) Lacritin-, C-5-, C-10-, C-15-, C-25- and C-59-intein beads were incubated with lysates from HEK293T cells stably expressing human SDC1. Beads were washed and treated with heparitinase I/chondroitinase ABC. The digests were centrifuged, and pellets (P) and supernatants (S) blotted with mAb B-B4 for SDC1 core protein, all as in FIG. 2. (C) Incubation of lacritin-, N-15- and N-24-intein beads with the same human SDC1 lysates was followed with identical washing, heparitinase I/chondroitinase ABC digestion, centrifugation and B-B4 mAb blotting. Lys, lysate. Figure 3B: Figure 3C: Figure 4A: FIG. 4. Lacritin-SDC1 binding is inhibited by soluble hS1ED, lacritin and N-24, but not by C-25, C-59, HS, CS, SDC2 or SDC4. (A) Top row, lacritin-intein beads were incubated with human SDC1 lysates from stably expressing HEK293T cells in the presence of increasing amounts of soluble HS (70-700 µg), HS (700 µg) plus CS (700 µg), lacritin (14-700 µg) or no inhibitor (−). Quantity of soluble inhibitor was calibrated relative to the approximately 7-8 µg of human SDC1 elutable from lacritin-intein beads with 1 M NaCl. […] (B) Quantification of inhibition binding.

human syndecan-1 (SDC1) [3] = target: T1, human syndecan-1 (SDC1); experiment: C-5-intein beads, HEK293T/SDC1 lysate, B-B4 blot
Procedure: as §2

human syndecan-1 (SDC1) [4] = target: T1, human syndecan-1 (SDC1); experiment: N-15-intein beads, HEK293T/SDC1 lysate, B-B4 blot
Procedure: as §2

human syndecan-1 (SDC1) [5] = target: T1, human syndecan-1 (SDC1); experiment: C-10-intein beads, HEK293T/SDC1 lysate, B-B4 blot
Procedure: as §2

human syndecan-1 (SDC1) [6] = target: T1, human syndecan-1 (SDC1); experiment: soluble competitor in lacritin-intein affinity precipitation of SDC1
Procedure: as §2

human syndecan-1 (SDC1) [7] = target: T1, human syndecan-1 (SDC1); experiment: N-24-intein beads, HEK293T/SDC1 lysate, B-B4 blot
Procedure: as §2

[8] = target: T4, alpha-2C-adrenergic receptor (ADRA2C) (human, UniProt P18825 1-462, limits assumed); experiment: low salt competition against 125I-iodoclonidine on immobilized human ADRA2C, repeated assays
T4 sequence (looked up): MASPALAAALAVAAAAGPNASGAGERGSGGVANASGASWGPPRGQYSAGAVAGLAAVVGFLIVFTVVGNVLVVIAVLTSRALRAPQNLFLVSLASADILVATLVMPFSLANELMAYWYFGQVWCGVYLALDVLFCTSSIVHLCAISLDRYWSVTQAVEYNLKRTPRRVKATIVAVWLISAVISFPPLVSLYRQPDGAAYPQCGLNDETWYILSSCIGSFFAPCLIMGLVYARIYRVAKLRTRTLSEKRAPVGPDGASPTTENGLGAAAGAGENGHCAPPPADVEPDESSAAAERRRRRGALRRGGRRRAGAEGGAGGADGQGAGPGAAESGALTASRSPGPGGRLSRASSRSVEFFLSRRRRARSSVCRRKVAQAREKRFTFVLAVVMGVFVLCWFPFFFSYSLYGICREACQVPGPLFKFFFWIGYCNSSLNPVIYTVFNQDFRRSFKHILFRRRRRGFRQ
Procedure: If we are correct that syndecan-1 increases lacritin's affinity for a G-protein coupled receptor (GPCR), possibly some low affinity GPCR binding can be detected without syndecan-1 in low salt. To ask this question, a low salt screen of 31 immobilized human GPCRs in which 10 nM lacritin, N-24 or C-25 were asked to compete with 125I-receptor ligand for receptor binding. […] Although preliminary, this compares to 1698 nM for native agonist epinephrine. Possibly N-24's lack of seven negatively charged residues may improve binding in the absence of syndecan-1.

B1: lacritin-intein (lacritin coupled to chitin beads via chitin-binding intein) (ligand, not shown: small tags and cut ends)
chain: EDASSDSTGADPAQEAGTSKPNEEISGPAEPASPPETTTTAQETSAAAVQGTAKVTSSRQELNPLKSIVEKSILLTEQALAKAGKGMHGGVPGGKQFIENGSEFAQKLLKKFSLLKPWA
notes: Bacterial fusion protein held on chitin beads; also called lacritin-intein beads; lacritin column
binding result (human syndecan-1 (SDC1) [1]): binds
binding result (human syndecan-2 (SDC2)): no binding
binding result (human syndecan-4 (SDC4)): no binding

B2: soluble lacritin (recombinant) (ligand)
chain: B1 chain
notes: also called intact lacritin
binding result (human syndecan-1 (SDC1) [2]): binds

B3: C-5 lacritin-intein (ligand, not shown: small tags and cut ends)
chain: EDASSDSTGADPAQEAGTSKPNEEISGPAEPASPPETTTTAQETSAAAVQGTAKVTSSRQELNPLKSIVEKSILLTEQALAKAGKGMHGGVPGGKQFIENGSEFAQKLLKKFSL
notes: All lacritin truncations were expressed as intein fusion proteins
binding result (human syndecan-1 (SDC1) [3]): binds

B4: N-15 lacritin-intein (ligand, not shown: small tags and cut ends)
chain: AGTSKPNEEISGPAEPASPPETTTTAQETSAAAVQGTAKVTSSRQELNPLKSIVEKSILLTEQALAKAGKGMHGGVPGGKQFIENGSEFAQKLLKKFSLLKPWA
binding result (human syndecan-1 (SDC1) [4]): binds

B5: C-10 lacritin-intein (ligand, not shown: small tags and cut ends)
chain: EDASSDSTGADPAQEAGTSKPNEEISGPAEPASPPETTTTAQETSAAAVQGTAKVTSSRQELNPLKSIVEKSILLTEQALAKAGKGMHGGVPGGKQFIENGSEFAQKLL
binding result (human syndecan-1 (SDC1) [5]): binds

Continued, values first:

binding result (human syndecan-1 (SDC1) [6]): no binding (tested: 14 µg)
B6: soluble C-59 lacritin (ligand)
chain: EDASSDSTGADPAQEAGTSKPNEEISGPAEPASPPETTTTAQETSAAAVQGTAKVTSSRQ
notes: Range counted by me

binding result (human syndecan-1 (SDC1) [7]): binds
B7: N-24 lacritin-intein (ligand, not shown: small tags and cut ends)
chain: ISGPAEPASPPETTTTAQETSAAAVQGTAKVTSSRQELNPLKSIVEKSILLTEQALAKAGKGMHGGVPGGKQFIENGSEFAQKLLKKFSLLKPWA

Ki [8]: 1290 nM
binding result (human syndecan-1 (SDC1) [2]): binds
B8: soluble N-24 lacritin (ligand)
chain: B7 chain
notes: Range counted by me

binding result (human syndecan-1 (SDC1) [6]): no binding (tested: 14 µg)
B9: soluble C-25 lacritin (ligand)
chain: EDASSDSTGADPAQEAGTSKPNEEISGPAEPASPPETTTTAQETSAAAVQGTAKVTSSRQELNPLKSIVEKSILLTEQALAKAGKGMHGGVPGG
notes: Range counted by me
